Experimental data taken from patent publication US20110144312A1 (Kyowa Kirin, published 2011).

T1: human IL-10Rα on cells (human, UniProt Q13651 22-578)
T1 construct: Full-length entry with signal peptide; endogenous on PBMC and RPMI-8226 cells, transfected in EL-4 and CHO-K1 cells; also called IL-10R on RPMI-8226 cells; IL-10Rα on human PBMC, lymphocytes and monocytes
T1 sequence: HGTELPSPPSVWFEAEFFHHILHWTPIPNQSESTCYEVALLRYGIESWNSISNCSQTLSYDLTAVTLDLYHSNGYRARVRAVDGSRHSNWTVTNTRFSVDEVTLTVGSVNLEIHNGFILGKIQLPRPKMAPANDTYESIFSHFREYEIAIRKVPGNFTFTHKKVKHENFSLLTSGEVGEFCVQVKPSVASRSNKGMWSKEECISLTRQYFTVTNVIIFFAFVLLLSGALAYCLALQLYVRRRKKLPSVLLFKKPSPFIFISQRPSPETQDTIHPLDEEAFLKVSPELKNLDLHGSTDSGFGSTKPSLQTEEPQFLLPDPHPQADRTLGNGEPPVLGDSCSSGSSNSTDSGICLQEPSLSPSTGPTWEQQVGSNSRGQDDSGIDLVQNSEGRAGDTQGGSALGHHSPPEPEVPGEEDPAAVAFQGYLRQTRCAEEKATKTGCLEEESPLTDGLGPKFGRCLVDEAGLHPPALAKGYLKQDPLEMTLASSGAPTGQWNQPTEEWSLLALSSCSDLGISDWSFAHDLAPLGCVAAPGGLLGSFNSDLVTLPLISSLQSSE

T2: mouse IL-10Rα on splenocytes (mouse, UniProt Q61727 17-575)
T2 construct: whole, on cells
T2 sequence (looked up): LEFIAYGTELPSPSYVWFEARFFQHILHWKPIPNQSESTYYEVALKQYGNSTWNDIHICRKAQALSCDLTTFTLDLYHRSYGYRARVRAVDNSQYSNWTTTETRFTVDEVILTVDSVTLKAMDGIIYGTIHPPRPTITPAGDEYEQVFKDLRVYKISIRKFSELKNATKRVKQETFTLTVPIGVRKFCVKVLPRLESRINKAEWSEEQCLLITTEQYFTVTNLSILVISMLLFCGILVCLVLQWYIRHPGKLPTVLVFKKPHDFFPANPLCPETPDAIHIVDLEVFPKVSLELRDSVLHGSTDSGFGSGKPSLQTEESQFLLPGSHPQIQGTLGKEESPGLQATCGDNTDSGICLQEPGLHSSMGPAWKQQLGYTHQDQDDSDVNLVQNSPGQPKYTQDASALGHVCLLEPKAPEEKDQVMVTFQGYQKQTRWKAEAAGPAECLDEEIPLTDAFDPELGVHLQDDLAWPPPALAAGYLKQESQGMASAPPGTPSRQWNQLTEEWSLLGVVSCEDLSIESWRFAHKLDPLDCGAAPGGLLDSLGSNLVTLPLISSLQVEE

T3: cynomolgus macaque IL-10Rα on PBMC (cynomolgus macaque, UniProt Q13651 22-578 (human entry))
T3 construct: Full-length entry cloned from cynomolgus T cells; endogenous on primary PBMC in the assays; also called IL-10Rα on the surface of cynomolgus lymphocytes and monocytes
T3 chain: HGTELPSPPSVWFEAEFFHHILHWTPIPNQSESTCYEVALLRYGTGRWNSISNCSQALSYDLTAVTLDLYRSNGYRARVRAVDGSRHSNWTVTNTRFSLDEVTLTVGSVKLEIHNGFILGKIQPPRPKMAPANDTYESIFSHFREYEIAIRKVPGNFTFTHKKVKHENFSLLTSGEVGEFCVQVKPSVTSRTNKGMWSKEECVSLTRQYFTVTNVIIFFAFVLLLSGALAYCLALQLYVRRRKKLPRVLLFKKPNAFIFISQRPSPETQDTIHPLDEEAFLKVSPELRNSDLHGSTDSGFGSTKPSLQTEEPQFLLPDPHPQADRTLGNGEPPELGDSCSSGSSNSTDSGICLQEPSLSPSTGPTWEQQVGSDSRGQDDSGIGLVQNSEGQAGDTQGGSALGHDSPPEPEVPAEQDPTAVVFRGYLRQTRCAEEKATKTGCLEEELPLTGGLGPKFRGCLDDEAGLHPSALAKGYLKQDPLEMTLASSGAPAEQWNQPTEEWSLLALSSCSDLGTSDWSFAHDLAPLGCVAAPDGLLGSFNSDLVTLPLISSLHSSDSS

T4: Ac-YHSNGYRARVRA-NH2 (human)
T4 peptide: Ac-YHSNGYRARVRA-NH2

T5: Ac-TVTNTRFSVD-NH2 (human)
T5 peptide: Ac-TVTNTRFSVD-NH2

T6: Ac-SIFSHFREYE-NH2 (human)
T6 peptide: Ac-SIFSHFREYE-NH2

T7: Ac-GNFTFTHKKV-NH2 (human)
T7 peptide: Ac-GNFTFTHKKV-NH2

T8: Ac-SVASRSNKGM-NH2 (human)
T8 peptide: Ac-SVASRSNKGM-NH2

T9: Biotin-SGSTLDLYHSNGYRARVRAVDG-NH2 (human, N-terminal biotin, C-terminal amide (-NH2))
T9 peptide: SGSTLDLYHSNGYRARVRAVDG

T10: Biotin-SGSTYSIFSHFREYEIAIRKV-NH2 (human, N-terminal biotin, C-terminal amide (-NH2))
T10 peptide: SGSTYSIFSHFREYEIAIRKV


What was measured:
human IL-10Rα on cells = target: T1, human IL-10Rα on cells; assay: flow cytometry on RPMI-8226 cells; biotinylated human IL-10, streptavidin-FITC [B]
Text: RPMI-8226 cells were stained with human IL-10 biotin followed by anti-human IL-10Rα antibodies, and binding of antibodies was detected with anti-human IgG-PE or anti-rat IgG-PE. A) Filled histograms represent the maximum binding of the antibodies in the absence of IL-10, the open histograms are in the presence of human IL-10; B) Maximum IL-10 binding (closed histogram) is inhibited by anti-IL-10 (open histogram.) The shaded histogram represents binding of a negative control protein. Binding of IL-10 was detected with streptavidin-FITC.
IL-10 Blocking Assay: To determine if the anti-human IL-10Rα antibodies were blocked by binding of IL-10 to the receptor on the cell surface, a flow cytometric protocol was used. In the flow cytometric assay, RPMI-8226 cells were washed and resuspended in staining buffer and then incubated with biotinylated human IL-10 or a negative control protein (R&D Systems) for 30 minutes on ice. The anti-IL-10Rα antibodies were then added to the cells for an additional 30 minutes. […] After another wash, the cells were fixed with 1% paraformaldehyde and analyzed on a FACS Calibur. The fold reduction in antibody binding was determined using the geometric mean fluorescence intensity in the following formula: Fold reduction=geometric mean fluorescence intensity in the absence of IL-10/geometric mean fluorescence intensity binding in presence of IL-10.

[1] = target: T2, mouse IL-10Rα on splenocytes; assay: flow cytometry on splenocytes
[2] = target: T3, cynomolgus macaque IL-10Rα on PBMC; assay: flow cytometry on cynomolgus PBMC
[3] = target: T11, cynomolgus macaque IL-10Rα extracellular domain fused to the Fc portion of human IgG1 (cynomolgus macaque); assay: ELISA, coated cynomolgus IL-10Rα:hFc
T11 construct: The entry includes the signal peptide; also called cynomolgus IL-10Rα:hFc; cyIL-10Rα
Text: Titration of anti-IL-10Rα antibodies binding to coated chimp or cynomolgus IL-10Rα:hFc. Binding was detected with anti-human kappa-HRP, anti-mouse IgG-HRP, or anti-rat IgG-HRP. Different anti-rat-IgG HRP and anti-mouse IgG antibodies were used to generate the data in panels A and B. The nature of these secondary antibodies can affect the results and lead to different maximum binding (BMAX). The BMAX from these studies are described in Table 5.
IL-10Rα Specific Antibody Detection ELISA: Antibody titers, specificity, and production by hybridomas were determined by ELISA. In brief, 96 well flat bottom Maxisorb plates were coated with 50 μl of hIL-10Rα (R&D Systems, Minneapolis, Minn.) at 1 μg/ml in carbonate buffer (pH 9.4) overnight at 4° C. or at 37° C. for 1 hour. After washing three times with PBS/0.05% Tween 20, plates were blocked with Superblock blocking buffer in TBS (Pierce) at room temperature for 30 minutes. The serum, supernatant, or purified antibody was diluted in blocking buffer, added to the wells, and the plates were incubated for 1 hour at room temperature. The plates were washed 3 times with PBS/0.05% Tween 20 and peroxidase-conjugated goat anti-human IgG (Fcγ specific), anti-rat IgG, or anti-mouse IgG detection antibodies (Jackson Immunoresearch) were added at a dilution of 1:5000. Multiple lots of anti-rat and anti-mouse IgG antibodies were used in different assays. […] Following a 1 hour incubation at room temperature, the plates were washed and the TMB (Sigma) substrate was added and incubated at room temperature for 5 to 10 minutes. The reaction was stopped with H₂SO₄ (LabChem) and the optical density was measured at 450 nm by a microplate reader. A second ELISA protocol using soluble human, chimp and cynomolgus IL-10Rα:hFc recombinant proteins as the coating antigens was also employed. In this assay, binding of specific human IgG were detected with a peroxidase labeled sheep anti-human kappa antibody (The Binding Site, Birmingham, UK).

Ac-YHSNGYRARVRA-NH2 = target: T4, Ac-YHSNGYRARVRA-NH2; assay: dot blot on PVDF or nitrocellulose membrane
Protocol: (§1) Methods to detect antibody binding to peptides derived from the human IL-10Rα sequence: Multiple methods were employed to detect binding of anti-human IL-10Rα antibodies to peptides derived from the extracellular domain of human IL-10Rα that have been reported by Reineke, et al. (Reineke, et al., Protein Sci 7:951 (1998)) to be included in the IL-10 binding site of the receptor. The following amide synthesized peptides were tested: Ac-[…]-NH2, Ac-[…]-NH2, Ac-[…]-NH2, Ac-[…]-NH2, Ac-[…]-NH2 (SEQ ID NO. 81-85). In addition, the following biotinylated peptides were tested: Biotin-[…]-NH2, Biotin-[…]-NH2 (SEQ ID NO. 86-87). The amide peptides were synthesized by A&A Labs, LLC (San Diego, Calif.) and the biotinylated peptides were synthesized by GenScript (Piscataway, N.J.) both at >95% purity and reconstituted at 20 mg/ml in DMSO. In one assay design peptides were spotted at 5 μg/spot in PBS onto PVDF membranes or nitrocellulose membranes that had been prepared according to the manufacturer's instructions. The membranes were incubated with anti-IL-10Rα antibodies using standard Western blotting methods (e.g. Towbin, et al., Proc Natl Acad Sci 76:4350 (1979)). Native human IL-10Ra:hFc and heat denatured human IL-10Ra:hFc were also spotted at 1 μg/spot on the membranes as controls. Negative controls included an irrelevant peptide and isotype controls. […] None of the antibodies bound to the spotted denatured protein or to any of the peptides derived from the human IL-10Ra extracellular domain or the irrelevant peptide.

Ac-TVTNTRFSVD-NH2 = target: T5, Ac-TVTNTRFSVD-NH2; assay: dot blot on PVDF or nitrocellulose membrane
Protocol: as §1

Ac-SIFSHFREYE-NH2 = target: T6, Ac-SIFSHFREYE-NH2; assay: dot blot on PVDF or nitrocellulose membrane
Protocol: as §1

Ac-GNFTFTHKKV-NH2 = target: T7, Ac-GNFTFTHKKV-NH2; assay: dot blot on PVDF or nitrocellulose membrane
Protocol: as §1

Ac-SVASRSNKGM-NH2 = target: T8, Ac-SVASRSNKGM-NH2; assay: dot blot on PVDF or nitrocellulose membrane
Protocol: as §1

[4] = target: T9, Biotin-SGSTLDLYHSNGYRARVRAVDG-NH2; assay: dot blot on PVDF or nitrocellulose membrane
Protocol: as §1

[5] = target: T10, Biotin-SGSTYSIFSHFREYEIAIRKV-NH2; assay: dot blot on PVDF or nitrocellulose membrane
Protocol: as §1

Row | Binder | binding result (human IL-10Rα on cells) | binding result [1] | binding result [2] | BMAX [3] | binding result (Ac-YHSNGYRARVRA-NH2) | binding result (Ac-TVTNTRFSVD-NH2) | binding result (Ac-SIFSHFREYE-NH2) | binding result (Ac-GNFTFTHKKV-NH2) | binding result (Ac-SVASRSNKGM-NH2) | binding result [4] | binding result [5]
1 | recombinant human IL-10 (ligand, UniProt P22301 19-178, looked up, also called human IL-10 biotin) SPGQGTQSENSCTHFPGNLPNMLRDLRDAFSRVKTFFQMKDQLDNLLLKESLLEDFKGYLGCQALSEMIQFYLEEVMPQAENQDPDIKAHVNSLGENLKTLRLRLRRCHRFLPCENKSKAVEQVKNAFNKLQEKGIYKAMSEFDIFINYIEAYMTMKIRN | binds |  |  |  |  |  |  |  |  |  | 
2 | 136D29 (antibody, V domains shown, Hybridoma antibody, human IgG4, kappa light chain #2 (the chain identified as correct); also called human anti-human IL-10Rα monoclonal antibody 136D29; 136D9 [sic]) VH: QVQLVQSGAEVKKPGASVKVSCKVSGFTLTELSMHWVRQAPGKGLEWMGGFDPDDGETIYAQKFQGRVSMTEDTSTDTAYMELSSLRSEDTAVYYCATGGYYGPVGMDVWGQGTTVTVSS VL: DIQMTQSPSSLSASVGDRVTITCRASQGISIWLAWYQQKPEKAPKSLIYAASSLQSGVPSRFSGSGSGTDFTLTISSLQPEDFATYYCQQYNSYPLTFGGGTKVEIK |  | no binding | binds | 1.31 OD | no binding (tested: 5 µg/spot) | no binding (tested: 5 µg/spot) | no binding (tested: 5 µg/spot) | no binding (tested: 5 µg/spot) | no binding (tested: 5 µg/spot) | no binding (tested: 5 µg/spot) | no binding (tested: 5 µg/spot)
